Where no end group is shown, it is not given here. [ ]: non-standard residue; d: D form. ΔPro = O=C(O)[C@@H]1C=CCN1; Aze = O=C(O)[C@@H]1CCN1
target: EGLN3; test: cell-based or functional assay

| Binder | Activity (%) |
| --- | --- |
| DTDLDTEAFA[Aze]YIPADDDFQ [DTDLDTEAFA8YIPADDDFQ] | 18.7% |
| DTDLDLEALA[b‑thioproline]YIPADDDFQ [DTDLDLEALA5YIPADDDFQ] | 11.1% |
| DTDLDVEAIA[Aze]YIPADDDFQ [DTDLDVEAIA8YIPADDDFQ] | 14.8% |
| DTDLDAEAVA[Aze]YIPADDDFQ [DTDLDAEAVA8YIPADDDFQ] | 17.2% |
| DTDLDVEAVA[Aze]YIPADDDFQ [DTDLDVEAVA8YIPADDDFQ] | 20.6% |
| DTDLDVEAYA[Aze]YIPADDDFQ [DTDLDVEAYA8YIPADDDFQ] | 33.5% |
| DTDLDLEALA[ΔPro]YIPADDDFQ [DTDLDLEALA4YIPADDDFQ] | 74.4% |
| DTDLDIEAVA[Aze]YIPADDDFQ [DTDLDIEAVA8YIPADDDFQ] | 18.8% |
| DTDLDTEAYA[Aze]YIPADDDFQ [DTDLDTEAYA8YIPADDDFQ] | 29.7% |
| DTDLDLEMLAPYIPMDDDFQ [Control peptide DTD20, DTDLDLEMLApYIPMDDDFQ] | 119% |
| DTDLDTEALA[Aze]YIPADDDFQ [DTDLDTEALA8YIPADDDFQ] | 80.1% |
| DTDLDVEAFA[Aze]YIPADDDFQ [DTDLDVEAFA8YIPADDDFQ] | 24.5% |
| DTDLDTEAVA[Aze]YIPADDDFQ [DTDLDTEAVA8YIPADDDFQ] | 10.3% |
| DTDLDLEALA[Aze]YIPADDDFQ [DTDLDLEALA8YIPADDDFQ] | 169% |
| DTDLDIEAIA[Aze]YIPADDDFQ [DTDLDIEAIA8YIPADDDFQ] | 31.2% |
| DTDLDAEAIA[Aze]YIPADDDFQ [DTDLDAEAIA8YIPADDDFQ] | 9.72% |

target: EGLN2; test: cell-based or functional assay

| Binder | Activity (%)* |
| --- | --- |
| DTDLDLEAHAPYIPADDDFQ [DTDLDLEAHApYIPADDDFQ] | 32.3% |
| DTDLDVEAFAPYIPADDDFQ (not fully specified; printed as DTDLDVEAFApYIPADDDFQ) [DTDLDVEAFApYIPADDDFQ] | 37.5% |
| DTDLDAEAVAPYIPADDDFQ [DTDLDAEAVApYIPADDDFQ] | 26.3% |
| DTDLDSEALAPYIPADDDFQ (not fully specified; printed as DTDLDSEALApYIPADDDFQ) [DTDLDSEALApYIPADDDFQ] | 23.8% |
| DTDLDLEMLAPYIPMDDDFQ [Control peptide DTD20, DTDLDLEMLApYIPMDDDFQ] | 100% |

target: EGLN3; test: cell-based or functional assay; remark: another data set of the same source

| Binder | Activity (%)* |
| --- | --- |
| DTDLDLEAHAPYIPADDDFQ [DTDLDLEAHApYIPADDDFQ] | 27% |
| DTDLDVEAFAPYIPADDDFQ (not fully specified; printed as DTDLDVEAFApYIPADDDFQ) [DTDLDVEAFApYIPADDDFQ] | 44.2% |
| DTDLDAEAVAPYIPADDDFQ [DTDLDAEAVApYIPADDDFQ] | 35.6% |
| DTDLDSEALAPYIPADDDFQ (not fully specified; printed as DTDLDSEALApYIPADDDFQ) [DTDLDSEALApYIPADDDFQ] | 61.3% |
| DTDLDLEMLAPYIPMDDDFQ [Control peptide DTD20, DTDLDLEMLApYIPMDDDFQ] | 119% |

target: EGLN1; test: cell-based or functional assay

| Binder | Activity (%)* |
| --- | --- |
| DTDLDLEAHAPYIPADDDFQ [DTDLDLEAHApYIPADDDFQ] | 34% |
| DTDLDVEAFAPYIPADDDFQ (not fully specified; printed as DTDLDVEAFApYIPADDDFQ) [DTDLDVEAFApYIPADDDFQ] | 34.1% |
| DTDLDAEAVAPYIPADDDFQ [DTDLDAEAVApYIPADDDFQ] | 34% |
| DTDLDSEALAPYIPADDDFQ (not fully specified; printed as DTDLDSEALApYIPADDDFQ) [DTDLDSEALApYIPADDDFQ] | 34.7% |
| DTDLDLEMLAPYIPMDDDFQ [Control peptide DTD20, DTDLDLEMLApYIPMDDDFQ] | 100% |

target: EGLN2; test: cell-based or functional assay; remark: another data set of the same source

| Binder | Activity (%)* |
| --- | --- |
| DTDLDTEAFA[Aze]YIPADDDFQ [DTDLDTEAFA8YIPADDDFQ] | 8.9% |
| DTDLDLEALA[b‑thioproline]YIPADDDFQ [DTDLDLEALA5YIPADDDFQ] | 7.9% |
| DTDLDVEAIA[Aze]YIPADDDFQ [DTDLDVEAIA8YIPADDDFQ] | 2.81% |
| DTDLDAEAAA[Aze]YIPADDDFQ [DTDLDAEAAA8YIPADDDFQ] | 4.16% |
| DTDLDAEAVA[Aze]YIPADDDFQ [DTDLDAEAVA8YIPADDDFQ] | 3.36% |
| DTDLDVEAYA[Aze]YIPADDDFQ [DTDLDVEAYA8YIPADDDFQ] | 27.2% |
| DTDLDLEALA[ΔPro]YIPADDDFQ [DTDLDLEALA4YIPADDDFQ] | 173% |
| DTDLDIEAVA[Aze]YIPADDDFQ [DTDLDIEAVA8YIPADDDFQ] | 1.96% |
| DTDLDTEAYA[Aze]YIPADDDFQ [DTDLDTEAYA8YIPADDDFQ] | 17% |
| DTDLDAEATA[Aze]YIPADDDFQ [DTDLDAEATA8YIPADDDFQ] | 1.55% |
| DTDLDLEMLAPYIPMDDDFQ [Control peptide DTD20, DTDLDLEMLApYIPMDDDFQ] | 100% |
| DTDLDTEALA[Aze]YIPADDDFQ [DTDLDTEALA8YIPADDDFQ] | 8.52% |
| DTDLDVEAFA[Aze]YIPADDDFQ [DTDLDVEAFA8YIPADDDFQ] | 13.9% |
| DTDLDLEALA[Aze]YIPADDDFQ [DTDLDLEALA8YIPADDDFQ] | 62% |
| DTDLDIEAIA[Aze]YIPADDDFQ [DTDLDIEAIA8YIPADDDFQ] | 10% |
| DTDLDAEAIA[Aze]YIPADDDFQ [DTDLDAEAIA8YIPADDDFQ] | 1.88% |

target: EGLN1; test: cell-based or functional assay; remark: another data set of the same source

| Binder | Activity (%)* |
| --- | --- |
| DTDLDTEAFA[Aze]YIPADDDFQ [DTDLDTEAFA8YIPADDDFQ] | 17.4% |
| DTDLDLEALA[b‑thioproline]YIPADDDFQ [DTDLDLEALA5YIPADDDFQ] | 8.93% |
| DTDLDVEAIA[Aze]YIPADDDFQ [DTDLDVEAIA8YIPADDDFQ] | 7.96% |
| DTDLDAEAAA[Aze]YIPADDDFQ [DTDLDAEAAA8YIPADDDFQ] | 10.3% |
| DTDLDAEAVA[Aze]YIPADDDFQ [DTDLDAEAVA8YIPADDDFQ] | 10% |
| DTDLDVEAYA[Aze]YIPADDDFQ [DTDLDVEAYA8YIPADDDFQ] | 32.3% |
| DTDLDLEALA[ΔPro]YIPADDDFQ [DTDLDLEALA4YIPADDDFQ] | 124% |
| DTDLDIEAVA[Aze]YIPADDDFQ [DTDLDIEAVA8YIPADDDFQ] | 6.35% |
| DTDLDTEAYA[Aze]YIPADDDFQ [DTDLDTEAYA8YIPADDDFQ] | 25.1% |
| DTDLDAEATA[Aze]YIPADDDFQ [DTDLDAEATA8YIPADDDFQ] | 7.6% |
| DTDLDLEMLAPYIPMDDDFQ [Control peptide DTD20, DTDLDLEMLApYIPMDDDFQ] | 100% |
| DTDLDTEALA[Aze]YIPADDDFQ [DTDLDTEALA8YIPADDDFQ] | 11.4% |
| DTDLDVEAFA[Aze]YIPADDDFQ [DTDLDVEAFA8YIPADDDFQ] | 21.2% |
| DTDLDLEALA[Aze]YIPADDDFQ [DTDLDLEALA8YIPADDDFQ] | 78.9% |
| DTDLDIEAIA[Aze]YIPADDDFQ [DTDLDIEAIA8YIPADDDFQ] | 18.3% |
| DTDLDAEAIA[Aze]YIPADDDFQ [DTDLDAEAIA8YIPADDDFQ] | 6.68% |

From patent US20080113383A1 (FIBRO GEN, published 2008)
